Assay results published in article PMC10904058 (2024).

Molecular target: FASN of the SPR analysis (UniProt P49327 1-2511)
Experiment: SPR

Kd: 17 nM
B1: TRIM56 of the SPR analysis (enzyme)
chain: MVSHGSSPSLLEALSSDFLACKICLEQLRAPKTLPCLHTYCQDCLAQLADGGRVRCPECRETVPVPPEGVASFKTNFFVNGLLDLVKARACGDLRAGKPACALCPLVGGTSTGGPATARCLDCADDLCQACADGHRCTRQTHTHRVVDLVGYRAGWYDEEARERQAAQCPQHPGEALRFLCQPCSQLLCRECRLDPHLDHPCLPLAEAVRARRPGLEGLLAGVDNNLVELEAARRVEKEALARLREQAARVGTQVEEAAEGVLRALLAQKQEVLGQLRAHVEAAEEAARERLAELEGREQVARAAAAFARRVLSLGREAEILSLEGAIAQRLRQLQGCPWAPGPAPCLLPQLELHPGLLDKNCHLLRLSFEEQQPQKDGGKDGAGTQGGEESQSRREDEPKTERQGGVQPQAGDGAQTPKEEKAQTTREEGAQTLEEDRAQTPHEDGGPQPHRGGRPNKKKKFKGRLKSISREPSPALGPNLDGSGLLPRPIFYCSFPTRMPGDKRSPRITGLCPFGPREILVADEQNRALKRFSLNGDYKGTVPVPEGCSPCSVAALQSAVAFSASARLYLINPNGEVQWRRALSLSQASHAVAALPSGDRVAVSVAGHVEVYNMEGSLATRFIPGGKASRGLRALVFLTTSPQGHFVGSDWQQNSVVICDGLGQVVGEYKGPGLHGCQPGSVSVDKKGYIFLTLREVNKVVILDPKGSLLGDFLTAYHGLEKPRVTTMVDGRYLVVSLSNGTIHIFRVRSPDS
